Source: patent publication US20260209386A1 (MYTHIC THERAPEUTICS, published 2026)
Numbering of substitutions follows the chain as printed.

T1: Human PTK7 Protein, His Tag (Acro Biosystems) (human, UniProt Q13308 31-704)
T1 construct: Bought His-tagged recombinant human PTK7; also called CCK4; Tyrosine-protein kinase-like 7
T1 sequence: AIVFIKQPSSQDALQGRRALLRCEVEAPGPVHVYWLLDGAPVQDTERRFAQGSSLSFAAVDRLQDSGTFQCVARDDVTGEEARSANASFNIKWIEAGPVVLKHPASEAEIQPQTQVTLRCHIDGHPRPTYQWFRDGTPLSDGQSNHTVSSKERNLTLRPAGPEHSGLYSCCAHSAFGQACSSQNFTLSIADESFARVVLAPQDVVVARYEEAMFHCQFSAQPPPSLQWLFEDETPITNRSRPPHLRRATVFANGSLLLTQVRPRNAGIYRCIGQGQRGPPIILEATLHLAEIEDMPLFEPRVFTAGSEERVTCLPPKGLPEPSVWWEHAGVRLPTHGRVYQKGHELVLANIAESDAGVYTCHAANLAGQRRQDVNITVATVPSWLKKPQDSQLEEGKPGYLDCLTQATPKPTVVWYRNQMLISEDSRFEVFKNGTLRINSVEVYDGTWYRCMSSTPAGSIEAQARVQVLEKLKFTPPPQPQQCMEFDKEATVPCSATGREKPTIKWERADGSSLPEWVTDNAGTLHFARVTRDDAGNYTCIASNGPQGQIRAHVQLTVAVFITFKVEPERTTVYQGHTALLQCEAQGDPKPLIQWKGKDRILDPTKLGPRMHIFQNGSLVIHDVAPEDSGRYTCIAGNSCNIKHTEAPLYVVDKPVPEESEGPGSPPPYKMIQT

T2: Human PTK7 Protein, His Tag, Acro Biosystems (human, UniProt Q13308 31-704)
T2 construct: Bought recombinant protein; also called CCK4; not shown: His tag
T2 sequence: T1 sequence

B1: MYT10951 (antibody, V domains shown)
VH: EVQLVESGGGLVQPGGSLRLSCTASHFSLSSYAMGWVRQAPGKGLEWVGFINAGGNTYYANWAKGRFTISRDTSKNTVYLQMNSLRAEDTAVYFCARRYSRASGWYDLWGQGTLVTVSS
VL: EIVMTQSPSTLSASVGDRVIITCQASQSISSYLAWYQQKPGKAPKLLIYAASTLASGVPSRFSGSGSGAEFTLTISSLQPDDFATYYCQSYSYSSGIDYGDVFGQGTKLTVL
notes: MYT9359 HC variant; captured on anti-human Fc sensor
B2: MYT10997 (antibody, V domains shown)
VH: B1 VH with H26G
VL: B1 VL with I29H
notes: MYT9359 LC variant; captured on anti-human Fc sensor
B3: MYT10991 (antibody, V domains shown)
VH: B1 VH with H26G, D107A
VL: B1 VL
notes: MYT9359 HC alanine variant; captured on anti-human Fc sensor
B4: MYT10974 (antibody, V domains shown)
VH: B1 VH with H26G, A63H
VL: B1 VL
notes: as for B1
B5: MYT10978 (antibody, V domains shown)
VH: B1 VH with H26G, R97H
VL: B1 VL
notes: as for B1
B6: MYT10980 (antibody, V domains shown)
VH: B1 VH with H26G, Y99H
VL: B1 VL
notes: as for B1
B7: MYT10993 (antibody, V domains shown)
VH: B1 VH with H26G
VL: B1 VL with A25H
notes: as for B2
B8: MYT11000 (antibody, V domains shown)
VH: B1 VH with H26G
VL: B1 VL with Y32H
notes: as for B2
B9: MYT10957 (antibody, V domains shown)
VH: B1 VH with H26G, Y32H
VL: B1 VL
notes: as for B1
B10: MYT10970 (antibody, V domains shown)
VH: B1 VH with H26G, Y59H
VL: B1 VL
notes: as for B1
B11: MYT10999 (antibody, V domains shown)
VH: B1 VH with H26G
VL: B1 VL with S31H
notes: as for B2
B12: MYT10963 (antibody, V domains shown)
VH: B1 VH with H26G, N52H
VL: B1 VL
notes: as for B1
B13: MYT10966 (antibody, V domains shown)
VH: B1 VH with H26G, G55H
VL: B1 VL
notes: as for B1
B14: MYT10959 (antibody, V domains shown)
VH: B1 VH with H26G, M34H
VL: B1 VL
notes: as for B1
B15: MYT10969 (antibody, V domains shown)
VH: B1 VH with H26G, Y58H
VL: B1 VL
notes: as for B1
B16: MYT10962 (antibody, V domains shown)
VH: B1 VH with H26G, I51H
VL: B1 VL
notes: as for B1
B17: MYT10998 (antibody, V domains shown)
VH: B1 VH with H26G
VL: B1 VL with S30H
notes: as for B2
B18: MYT10910 (antibody, V domains shown)
VH: EVQLVESGGGLVQPGGSLRLSCTASGFSLSNYVMNWVRQAPGKGLEWVGIIDSSGSTYYASWAKHRFTISRDTSKNTVYLQMNSLRAEDTAVYFCARGLYLWGQGTLVTVSS
VL: EIVMTQSPSTLSASVGDRVIITCQSSQSVYNNNLLAWYQQKPGKAPKLLIYYTSNLASGVPSRFSGSGSGAEFTLTISSLQPDDFATYYCQGGYNGNIYAFGQGTKLTVL
notes: MYT9345 variant, His at VH pos 65 (H2 16)
B19: MYT10934 (antibody, V domains shown)
VH: B18 VH with H65G
VL: B18 VL with S54H
notes: MYT9345 variant, His at VL pos 54 (L2 03)
B20: MYT10938 (antibody, V domains shown)
VH: B18 VH with H65G
VL: B18 VL with S58H
notes: MYT9345 variant, His at VL pos 58 (L2 07)
B21: MYT10915 (antibody, V domains shown)
VH: B18 VH with H65G, Y100H
VL: B18 VL
notes: MYT9345 variant, His at VH pos 100 (H3 05)
B22: MYT10933 (antibody, V domains shown)
VH: B18 VH with H65G
VL: B18 VL with T53H
notes: MYT9345 variant, His at VL pos 53 (L2 02)
B23: MYT10948 (antibody, V domains shown)
VH: B18 VH with H65G
VL: B18 VL with A100H
notes: MYT9345 variant, His at VL pos 100 (L3 10)
B24: MYT10914 (antibody, V domains shown)
VH: B18 VH with H65G, L99H
VL: B18 VL
notes: MYT9345 variant, His at VH pos 99 (H3 04)
B25: MYT10922 (antibody, V domains shown)
VH: B18 VH with H65G
VL: B18 VL with Q27H
notes: MYT9345 variant, His at VL pos 27 (L1 04)
B26: MYT10923 (antibody, V domains shown)
VH: B18 VH with H65G
VL: B18 VL with S28H
notes: MYT9345 variant, His at VL pos 28 (L1 05)
B27: MYT10941 (antibody, V domains shown)
VH: B18 VH with H65G
VL: B18 VL with G93H
notes: MYT9345 variant, His at VL pos 93 (L3 03)
B28: MYT10945 (antibody, V domains shown)
VH: B18 VH with H65G
VL: B18 VL with N97H
notes: MYT9345 variant, His at VL pos 97 (L3 07)
B29: MYT10940 (antibody, V domains shown)
VH: B18 VH with H65G
VL: B18 VL with G92H
notes: MYT9345 variant, His at VL pos 92 (L3 02)
B30: MYT10921 (antibody, V domains shown)
VH: B18 VH with H65G
VL: B18 VL with S26H
notes: MYT9345 variant, His at VL pos 26 (L1 03)
B31: MYT10924 (antibody, V domains shown)
VH: B18 VH with H65G
VL: B18 VL with V29H
notes: MYT9345 variant, His at VL pos 29 (L1 06)
B32: MYT10931 (antibody, V domains shown)
VH: B18 VH with H65G
VL: B18 VL with A36H
notes: MYT9345 variant, His at VL pos 36 (L1 13)
B33: MYT10932 (antibody, V domains shown)
VH: B18 VH with H65G
VL: B18 VL with Y52H
notes: MYT9345 variant, His at VL pos 52 (L2 01)
B34: MYT10919 (antibody, V domains shown)
VH: B18 VH with H65G
VL: B18 VL with Q24H
notes: MYT9345 variant, His at VL pos 24 (L1 01)
B35: MYT10947 (antibody, V domains shown)
VH: B18 VH with H65G
VL: B18 VL with Y99H
notes: MYT9345 variant, His at VL pos 99 (L3 09)
B36: MYT10929 (antibody, V domains shown)
VH: B18 VH with H65G
VL: B18 VL with L34H
notes: MYT9345 variant, His at VL pos 34 (L1 11)
B37: MYT10912 (antibody, V domains shown)
VH: B18 VH with H65G, R97H
VL: B18 VL
notes: MYT9345 variant, His at VH pos 97 (H3 02)

Target: T1, Human PTK7 Protein, His Tag (Acro …)
Assay: BLI (Octet), antibody on anti-human Fc sensor, 50 nM PTK7; 1 = pH dependent binding

Binding result, binds:
B1, B2, B3, B4, B5, B6, B7, B8, B9, B10, B11, B12, B13, B14, B15, B16, B17

Target: T2, Human PTK7 Protein, His Tag, Acro …
Assay: BLI (Octet), antibody on anti-human Fc sensor, 50 nM PTK7 at pH 7.4, dissociation at pH 7.4 or 5.4; 2 = substantially similar binding relative to parent

Binding result, binds:
B18, B19, B20, B21, B22, B23, B24, B25, B26, B27, B28, B29, B30, B31, B32, B33, B34, B35, B36, B37
